Results published in US20220282268A1.

Target: Hybrid Rubisco of A. thaliana S2Cr lines (1a3b mutant complemented with S2Cr) (Arabidopsis thaliana; Chlamydomonas reinhardtii) (UniProt O03042)
Experiment: cell-based or functional assay

share of Rubisco in the pelleted condensate that contained C. reinhardtii SSU (Coomassie-stained gel): 82%
share of Rubisco localized to the condensate (immunogold TEM, polyclonal Rubisco antibody): 54%
share of the C. reinhardtii SSU localized to the condensate (immunogold TEM, anti-CrRbcS2): 81%
Substance: EPYC1-dGFP (truncated mature EPYC1 expressed from two cassettes as EPYC1::eGFP and EPYC1::tGFP)
